Measured values as given in the supplement of paper PMC5998384.

Assays:
HeLa Kyoto [1] = experiment: thermal stability score vs G1/S (z-score of summed log2 fold changes over temperatures); higher = more thermally stable than in G1/S
HeLa Kyoto [2] = experiment: melting temperature (median over replicates), in situ; higher = more thermally stable
HeLa Kyoto [3] = experiment: solubility in G1/S (NP-40 vs SDS abundance) (log2 ratio); higher = more soluble; conditions: cell cycle stage: G1/S
HeLa Kyoto [4] = experiment: solubility change mitosis vs G1/S (difference of NP-40 vs SDS log2 ratios) (log2 ratio difference); higher = more soluble in mitosis
[5] = cell cycle stage: early G1 (4.5 h after nocodazole release)
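Wherever melting temperature (median over replicates), in situ is given: HeLa Kyoto cells synchronized by double thymidine or nocodazole block, proteins quantified by TMT10plex mass spectrometry, three independent biological replicates.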
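Wherever solubility change mitosis vs G1/S (difference of NP-40 vs SDS log2 ratios) is given: synchronized HeLa Kyoto cells (double thymidine block for G1/S, nocodazole release for mitosis), protein amounts in NP-40 versus SDS lysates quantified by mass spectrometry, three biological replicates.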
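Wherever solubility in G1/S (NP-40 vs SDS abundance) is given: HeLa Kyoto cells arrested at G1/S by double thymidine block, proteins quantified by TMT10plex mass spectrometry in mild NP-40 versus SDS extracts, three biological replicates.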
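Wherever thermal stability score vs G1/S (z-score of summed log2 fold changes over temperatures) is given: synchronized HeLa Kyoto cells, proteins quantified by TMT10plex mass spectrometry, three biological replicates, mitosis taken 0.5 h after nocodazole release, G1/S directly after double thymidine block.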

Sequence of CKB (chain, as listed by the source): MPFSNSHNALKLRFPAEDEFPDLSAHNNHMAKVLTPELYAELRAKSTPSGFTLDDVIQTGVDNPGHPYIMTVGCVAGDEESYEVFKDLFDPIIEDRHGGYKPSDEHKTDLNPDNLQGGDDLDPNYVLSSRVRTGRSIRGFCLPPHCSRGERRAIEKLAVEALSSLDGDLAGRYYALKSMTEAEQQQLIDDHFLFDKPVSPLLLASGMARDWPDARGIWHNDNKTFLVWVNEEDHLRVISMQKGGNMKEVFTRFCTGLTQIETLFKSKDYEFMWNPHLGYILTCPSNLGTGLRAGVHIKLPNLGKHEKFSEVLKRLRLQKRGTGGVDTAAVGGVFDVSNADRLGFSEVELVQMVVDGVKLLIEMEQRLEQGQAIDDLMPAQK
Sequence of CHAC2 (chain, as listed by the source): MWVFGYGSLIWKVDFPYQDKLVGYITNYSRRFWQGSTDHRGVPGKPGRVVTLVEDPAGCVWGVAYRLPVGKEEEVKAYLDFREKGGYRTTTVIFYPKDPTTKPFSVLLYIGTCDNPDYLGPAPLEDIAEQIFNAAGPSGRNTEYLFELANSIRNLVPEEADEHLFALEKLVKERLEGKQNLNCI
Sequence of COL12A1 (chain, as listed by the source): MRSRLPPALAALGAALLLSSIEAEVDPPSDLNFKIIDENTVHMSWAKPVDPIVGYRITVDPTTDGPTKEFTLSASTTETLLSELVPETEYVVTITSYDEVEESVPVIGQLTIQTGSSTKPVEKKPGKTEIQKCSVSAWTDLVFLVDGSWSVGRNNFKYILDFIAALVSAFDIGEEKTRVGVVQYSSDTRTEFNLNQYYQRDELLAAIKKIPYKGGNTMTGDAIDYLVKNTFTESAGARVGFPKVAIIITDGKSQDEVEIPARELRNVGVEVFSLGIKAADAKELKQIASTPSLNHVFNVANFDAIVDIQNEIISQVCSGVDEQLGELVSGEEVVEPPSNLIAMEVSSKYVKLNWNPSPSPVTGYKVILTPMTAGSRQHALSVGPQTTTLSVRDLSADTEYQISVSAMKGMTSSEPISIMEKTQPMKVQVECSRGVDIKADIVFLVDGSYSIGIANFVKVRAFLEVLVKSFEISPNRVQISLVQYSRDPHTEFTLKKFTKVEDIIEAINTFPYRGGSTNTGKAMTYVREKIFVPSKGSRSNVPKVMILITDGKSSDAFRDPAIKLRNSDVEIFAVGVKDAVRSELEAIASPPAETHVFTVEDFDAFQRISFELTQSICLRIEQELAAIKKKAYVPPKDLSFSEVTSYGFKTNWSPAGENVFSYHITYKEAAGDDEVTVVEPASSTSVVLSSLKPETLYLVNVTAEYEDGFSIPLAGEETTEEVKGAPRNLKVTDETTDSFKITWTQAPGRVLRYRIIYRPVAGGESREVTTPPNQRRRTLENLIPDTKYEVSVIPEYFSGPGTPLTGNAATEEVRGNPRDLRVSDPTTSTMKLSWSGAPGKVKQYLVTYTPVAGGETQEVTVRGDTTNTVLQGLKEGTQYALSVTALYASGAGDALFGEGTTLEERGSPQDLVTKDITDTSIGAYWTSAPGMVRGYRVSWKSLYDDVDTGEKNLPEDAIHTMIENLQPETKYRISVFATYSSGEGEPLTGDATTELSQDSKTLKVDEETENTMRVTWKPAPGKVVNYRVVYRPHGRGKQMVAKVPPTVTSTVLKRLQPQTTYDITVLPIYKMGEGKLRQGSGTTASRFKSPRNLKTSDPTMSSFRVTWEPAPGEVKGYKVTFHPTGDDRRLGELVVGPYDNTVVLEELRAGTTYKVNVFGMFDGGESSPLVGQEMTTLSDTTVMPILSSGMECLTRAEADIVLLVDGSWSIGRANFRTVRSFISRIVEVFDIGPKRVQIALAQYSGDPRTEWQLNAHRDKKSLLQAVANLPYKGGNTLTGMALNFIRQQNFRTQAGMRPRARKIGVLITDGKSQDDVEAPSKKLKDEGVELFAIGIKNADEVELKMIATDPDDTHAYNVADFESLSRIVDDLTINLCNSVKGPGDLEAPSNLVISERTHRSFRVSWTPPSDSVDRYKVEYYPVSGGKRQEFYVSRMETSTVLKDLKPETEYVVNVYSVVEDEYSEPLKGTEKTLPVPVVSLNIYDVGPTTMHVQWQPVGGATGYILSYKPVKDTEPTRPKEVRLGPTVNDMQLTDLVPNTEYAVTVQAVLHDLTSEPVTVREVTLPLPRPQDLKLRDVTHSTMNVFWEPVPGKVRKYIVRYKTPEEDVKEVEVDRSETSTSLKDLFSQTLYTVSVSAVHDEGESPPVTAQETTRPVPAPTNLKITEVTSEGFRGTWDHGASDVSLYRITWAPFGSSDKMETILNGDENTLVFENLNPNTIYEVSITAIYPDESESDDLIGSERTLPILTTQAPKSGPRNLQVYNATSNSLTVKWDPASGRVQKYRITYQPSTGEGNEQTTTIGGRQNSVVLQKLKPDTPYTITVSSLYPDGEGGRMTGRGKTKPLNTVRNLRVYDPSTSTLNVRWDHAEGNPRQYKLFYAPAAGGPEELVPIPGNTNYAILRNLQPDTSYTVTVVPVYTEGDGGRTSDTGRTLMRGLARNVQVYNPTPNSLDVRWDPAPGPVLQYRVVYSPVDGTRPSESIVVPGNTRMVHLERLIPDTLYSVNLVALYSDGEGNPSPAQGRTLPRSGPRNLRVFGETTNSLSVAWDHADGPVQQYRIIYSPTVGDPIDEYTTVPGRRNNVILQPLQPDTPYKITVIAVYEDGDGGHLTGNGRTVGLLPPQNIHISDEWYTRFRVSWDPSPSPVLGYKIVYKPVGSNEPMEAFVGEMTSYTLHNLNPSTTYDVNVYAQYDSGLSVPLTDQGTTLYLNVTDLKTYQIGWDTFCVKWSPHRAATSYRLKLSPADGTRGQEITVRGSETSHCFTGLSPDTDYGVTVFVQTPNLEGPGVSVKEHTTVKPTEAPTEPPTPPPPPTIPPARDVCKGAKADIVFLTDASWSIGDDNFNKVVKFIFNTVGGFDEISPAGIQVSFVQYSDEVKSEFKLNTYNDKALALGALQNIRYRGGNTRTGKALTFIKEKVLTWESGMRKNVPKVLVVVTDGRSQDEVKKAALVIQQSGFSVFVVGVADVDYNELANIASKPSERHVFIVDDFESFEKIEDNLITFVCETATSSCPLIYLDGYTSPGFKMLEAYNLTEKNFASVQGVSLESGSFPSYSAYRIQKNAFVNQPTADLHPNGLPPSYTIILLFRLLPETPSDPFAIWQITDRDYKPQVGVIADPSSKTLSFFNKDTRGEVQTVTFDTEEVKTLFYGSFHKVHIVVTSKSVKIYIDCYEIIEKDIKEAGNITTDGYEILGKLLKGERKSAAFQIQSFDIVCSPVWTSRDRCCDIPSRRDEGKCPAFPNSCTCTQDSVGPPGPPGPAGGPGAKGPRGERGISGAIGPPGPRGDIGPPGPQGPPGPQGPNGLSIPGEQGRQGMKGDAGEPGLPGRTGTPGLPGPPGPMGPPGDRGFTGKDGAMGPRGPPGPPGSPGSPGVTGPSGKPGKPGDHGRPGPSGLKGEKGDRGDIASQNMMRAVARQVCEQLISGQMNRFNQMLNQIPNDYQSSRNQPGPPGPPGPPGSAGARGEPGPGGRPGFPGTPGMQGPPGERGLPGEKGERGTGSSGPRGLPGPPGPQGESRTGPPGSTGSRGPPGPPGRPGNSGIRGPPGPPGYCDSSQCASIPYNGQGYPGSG
Sequence of CDK12 (chain, as listed by the source): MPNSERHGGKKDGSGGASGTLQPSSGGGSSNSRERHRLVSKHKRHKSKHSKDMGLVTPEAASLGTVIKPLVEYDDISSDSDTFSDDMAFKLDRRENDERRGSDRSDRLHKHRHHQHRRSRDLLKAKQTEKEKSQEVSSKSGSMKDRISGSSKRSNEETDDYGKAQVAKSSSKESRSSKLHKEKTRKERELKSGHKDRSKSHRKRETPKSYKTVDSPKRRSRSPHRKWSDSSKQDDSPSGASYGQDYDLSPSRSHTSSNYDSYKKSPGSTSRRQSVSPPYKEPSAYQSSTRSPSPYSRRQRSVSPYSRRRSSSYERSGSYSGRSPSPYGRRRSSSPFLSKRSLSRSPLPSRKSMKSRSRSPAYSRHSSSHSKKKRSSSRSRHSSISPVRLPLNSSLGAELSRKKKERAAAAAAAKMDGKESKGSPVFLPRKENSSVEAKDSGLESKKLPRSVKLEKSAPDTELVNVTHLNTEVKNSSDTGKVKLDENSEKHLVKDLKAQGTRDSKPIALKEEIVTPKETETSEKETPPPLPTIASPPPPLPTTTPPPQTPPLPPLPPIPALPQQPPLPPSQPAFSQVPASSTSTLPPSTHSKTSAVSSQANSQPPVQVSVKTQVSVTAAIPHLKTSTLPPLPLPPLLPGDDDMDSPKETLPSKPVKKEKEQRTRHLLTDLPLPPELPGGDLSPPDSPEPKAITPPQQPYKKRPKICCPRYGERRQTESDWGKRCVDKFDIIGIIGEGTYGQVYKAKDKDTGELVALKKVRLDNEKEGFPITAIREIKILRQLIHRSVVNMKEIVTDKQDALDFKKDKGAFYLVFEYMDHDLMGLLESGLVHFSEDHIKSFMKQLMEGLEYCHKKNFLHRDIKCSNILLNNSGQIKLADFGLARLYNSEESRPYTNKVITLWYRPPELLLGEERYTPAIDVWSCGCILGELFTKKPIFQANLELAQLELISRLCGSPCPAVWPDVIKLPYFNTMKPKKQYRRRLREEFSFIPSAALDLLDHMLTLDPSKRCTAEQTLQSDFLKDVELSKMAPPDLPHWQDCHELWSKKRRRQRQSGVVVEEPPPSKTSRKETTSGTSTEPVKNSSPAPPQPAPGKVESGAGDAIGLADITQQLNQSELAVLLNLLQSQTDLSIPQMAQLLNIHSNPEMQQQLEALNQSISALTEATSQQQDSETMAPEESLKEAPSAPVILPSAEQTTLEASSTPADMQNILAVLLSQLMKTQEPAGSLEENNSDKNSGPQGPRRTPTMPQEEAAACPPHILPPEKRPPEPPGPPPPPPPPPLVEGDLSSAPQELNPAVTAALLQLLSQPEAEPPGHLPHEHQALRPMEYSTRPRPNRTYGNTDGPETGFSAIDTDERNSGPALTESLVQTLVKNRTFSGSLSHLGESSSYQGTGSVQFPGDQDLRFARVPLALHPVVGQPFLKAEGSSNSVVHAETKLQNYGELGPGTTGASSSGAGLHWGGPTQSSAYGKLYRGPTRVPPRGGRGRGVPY

| Substance | thermal stability score (HeLa Kyoto [1]; [5]) | thermal stability score (HeLa Kyoto [1]; cell cycle stage: mitosis) | melting temperature (HeLa Kyoto [2]; cell cycle stage: G1/S) [°C] | melting temperature (HeLa Kyoto [2]; cell cycle stage: mitosis) [°C] | solubility in G1/S (log2) (HeLa Kyoto [3]) | solubility change mitosis (log2) (HeLa Kyoto [4]) |
| --- | --- | --- | --- | --- | --- | --- |
| CDC42BPB | 0.874 | 0.582 | 51 | 50.6 | -0.234 | -0.105 |
| CDK12 | -0.391 | 0.677 | 50.9 | 52.5 | -0.473 | 0.238 |
| CHAC2 | 0.759 | 0.354 | 53 | 51.9 | 0.541 | -0.0779 |
| CHD3 | 0.67 | 1.73 | 46.5 | 49.1 | -0.643 | 0.14 |
| CHID1 | 0.711 | 2.28 | 53.4 | 54 | -0.16 | -0.0199 |
| CHMP5 | -3.8 | -3.3 | 55.2 | 52.2 | 0.437 | 0.751 |
| CKB | 1.63 | 2 | 51 | 51.3 | 0.651 | -0.115 |
| CLIC4 | -0.344 | 0.497 | 52.1 | 52.5 | 0.409 | -0.146 |
| COL12A1 | 4.88 | 5.9 | 53.8 | 54.9 | -0.1 | -0.124 |
| MSQGILSPPAGLLSDDDVVVSPMFESTAADLGSVVRKNLLSDCSVVSTSLEDKQQVPSEDSMEKVKVYLRVRPLLPSELERQEDQGCVRIENVETLVLQAPKDSFALKSNERGIGQATHRFTFSQIFGPEVGQASFFNLTVKEMVKDVLKGQNWLIYTYGVTNSGKTHTIQGTIKDGGILPRSLALIFNSLQGQLHPTPDLKPLLSNEVIWLDSKQIRQEEMKKLSLLNGGLQEEELSTSLKRSVYIESRIGTSTSFDSGIAGLSSISQCTSSSQLDETSHRWAQPDTAPLPVPANIRFSIWISFFEIYNELLYDLLEPPSQQRKRQTLRLCEDQNGNPYVKDLNWIHVQDAEEAWKLLKVGRKNQSFASTHLNQNSSRSHSIFSIRILHLQGEGDIVPKISELSLCDLAGSERCKDQKSGERLKEAGNINTSLHTLGRCIAALRQNQQNRSKQNLVPFRDSKLTRVFQGFFTGRGRSCMIVNVNPCASTYDETLHVAKFSAIASQLVHAPPMQLGFPSLHSFIKEHSLQVSPSLEKGAKADTGLDDDIENEADISMYGKEELLQVVEAMKTLLLKERQEKLQLEMHLRDEICNEMVEQMQQREQWCSEHLDTQKELLEEMYEEKLNILKESLTSFYQEEIQERDEKIEELEALLQEARQQSVAHQQSGSELALRRSQRLAASASTQQLQEVKAKLQQCKAELNSTTEELHKYQKMLEPPPSAKPFTIDVDKKLEEGQKNIRLLRTELQKLGESLQSAERACCHSTGAGKLRQALTTCDDILIKQDQTLAELQNNMVLVKLDLRKKAACIAEQYHTVLKLQGQVSAKKRLGTNQENQQPNQQPPGKKPFLRNLLPRTPTCQSSTDCSPYARILRSRRSPLLKSGPFGKKY [KIF20A] | 0.449 | 3.61 |  |  | -0.582 | -0.0791 |
| MSQGSPGDWAPLDPTPGPPASPNPFVHELHLSRLQRVKFCLLGALLAPIRVLLAFIVLFLLWPFAWLQVAGLSEEQLQEPITGWRKTVCHNGVLGLSRLLFFLLGFLRIRVRGQRASRLQAPVLVAAPHSTFFDPIVLLPCDLPKVVSRAENLSVPVIGALLRFNQAILVSRHDPASRRRVVEEVRRRATSGGKWPQVLFFPEGTCSNKKALLKFKPGAFIAGVPVQPVLIRYPNSLDTTSWAWRGPGVLKVLWLTASQPCSIVDVEFLPVYHPSPEESRDPTLYANNVQRVMAQALGIPATECEFVGSLPVIVVGRLKVALEPQLWELGKVLRKAGLSAGYVDAGAEPGRSRMISQEEFARQLQLSDPQTVAGAFGYFQQDTKGLVDFRDVALALAALDGGRSLEELTRLAFELFAEEQAEGPNRLLYKDGFSTILHLLLGSPHPAATALHAELCQAGSSQGLSLCQFQNFSLHDPLYGKLFSTYLRPPHTSRGTSQTPNASSPGNPTALANGTVQAPKQKGD [LPCAT4] | 0.358 | 0.234 |  |  | -0.0461 | -0.122 |
| MSSACDAGDHYPLHLLVWKNDYRQLEKELQGQNVEAVDPRGRTLLHLAVSLGHLESARVLLRHKADVTKENRQGWTVLHEAVSTGDPEMVYTVLQHRDYHNTSMALEGVPELLQKILEAPDFYVQMKWEFTSWVPLVSRICPNDVCRIWKSGAKLRVDITLLGFENMSWIRGRRSFIFKGEDNWAELMEVNHDDKVVTTERFDLSQEMERLTLDLMKPKSREVERRLTSPVINTSLDTKNIAFERTKSGFWGWRTDKAEVVNGYEAKVYTVNNVNVITKIRTEHLTEEEKKRYKADRNPLESLLGTVEHQFGAQGDLTTECATANNPTAITPDEYFNEEFDLKDRDIGRPKELTIRTQKFKAMLWMCEEFPLSLVEQVIPIIDLMARTSAHFARLRDFIKLEFPPGFPVKIEIPLFHVLNARITFGNVNGCSTAEESVSQNVEGTQADSASHITNFEVDQSVFEIPESYYVQDNGRNVHLQDEDYEIMQFAIQQSLLESSRSQELSGPASNGGISQTNTYDAQYERAIQESLLTSTEGLCPSALSETSRFDNDLQLAMELSAKELEEWELRLQEEEAELQQVLQLSLTDK [ANKRD13A] | 0.86 | 0.416 |  |  | -0.139 | -0.0203 |
| MSSLGASFVQIKFDDLQFFENCGGGSFGSVYRAKWISQDKEVAVKKLLKIEKEAEILSVLSHRNIIQFYGVILEPPNYGIVTEYASLGSLYDYINSNRSEEMDMDHIMTWATDVAKGMHYLHMEAPVKVIHRDLKSRNVVIAADGVLKICDFGASRFHNHTTHMSLVGTFPWMAPEVIQSLPVSETCDTYSYGVVLWEMLTREVPFKGLEGLQVAWLVVEKNERLTIPSSCPRSFAELLHQCWEADAKKRPSFKQIISILESMSNDTSLPDKCNSFLHNKAEWRCEIEATLERLKKLERDLSFKEQELKERERRLKMWEQKLTEQSNTPLLPSFEIGAWTEDDVYCWVQQLVRKGDSSAEMSVYASLFKENNITGKRLLLLEEEDLKDMGIVSKGHIIHFKSAIEKLTHDYINLFHFPPLIKDSGGEPEENEEKIVNLELVFGFHLKPGTGPQDCKWKMYMEMDGDEIAITYIKDVTFNTNLPDAEILKMTKPPFVMEKWIVGIAKSQTVECTVTYESDVRTPKSTKHVHSIQWSRTKPQDEVKAVQLAIQTLFTNSDGNPGSRSDSSADCQWLDTLRMRQIASNTSLQRSQSNPILGSPFFSHFDGQDSYAAAVRRPQVPIKYQQITPVNQSRSSSPTQYGLTKNFSSLHLNSRDSGFSSGNTDTSSERGRYSDRSRNKYGRGSISLNSSPRGRYSGKSQHSTPSRGRYPGKFYRVSQSALNPHQSPDFKRSPRDLHQPNTIPGMPLHPETDSRASEEDSKVSEGGWTKVEYRKKPHRPSPAKTNKERARGDHRGWRNF [ZAK] | -0.231 | -2.89 |  |  | -1.14 | 0.649 |
| MTGLYELVWRVLHALLCLHRTLTSWLRVRFGTWNWIWRRCCRAASAAVLAPLGFTLRKPPAVGRNRRHHRHPRGGSCLAAAHHRMRWRADGRSLEKLPVHMGLVITEVEQEPSFSDIASLVVWCMAVGISYISVYDHQGIFKRNNSRLMDEILKQQQELLGLDCSKYSPEFANSNDKDDQVLNCHLAVKVLSPEDGKADIVRAAQDFCQLVAQKQKRPTDLDVDTLASLLSSNGCPDPDLVLKFGPVDSTLGFLPWHIRLTEIVSLPSHLNISYEDFFSALRQYAACEQRLGK [NUS1] | -0.859 | 0.124 |  |  | 0.00319 | 0.162 |
| MTQPVPRLSVPAALALGSAALGAAFATGLFLGRRCPPWRGRREQCLLPPEDSRLWQYLLSRSMREHPALRSLRLLTLEQPQGDSMMTCEQAQLLANLARLIQAKKALDLGTFTGYSALALALALPADGRVVTCEVDAQPPELGRPLWRQAEAEHKIDLRLKPALETLDELLAAGEAGTFDVAVVDADKENCSAYYERCLQLLRPGGILAVLRVLWRGKVLQPPKGDVAAECVRNLNERIRRDVRVYISLLPLGDGLTLAFKI [COMTD1] | -0.487 | 0.44 |  |  | 0.16 | 0.00811 |
| MWDQRLVRLALLQHLRAFYGIKVKGVRGQCDRRRHETAATEIGGKIFGVPFNALPHSAVPEYGHIPSFLVDACTSLEDHIHTEGLFRKSGSVIRLKALKNKVDHGEGCLSSAPPCDIAGLLKQFFRELPEPILPADLHEALLKAQQLGTEEKNKATLLLSCLLADHTVHVLRYFFNFLRNVSLRSSENKMDSSNLAVIFAPNLLQTSEGHEKMSSNTEKKLRLQAAVVQTLIDYASDIGRVPDFILEKIPAMLGIDGLCATPSLEGFEEGEYETPGEYKRKRRQSVGDFVSGALNKFKPNRTPSITPQEERIAQLSESPVILTPNAKRTLPVDSSHGFSSKKRKSIKHNFNFELLPSNLFNSSSTPVSVHIDTSSEGSSQSSLSPVLIGGNHLITAGVPRRSKRIAGKKVCRVESGKAGCFSPKISHKEKVRRSLRLKFNLGKNGREVNGCSGVNRYESVGWRLANQQSLKNRIESVKTGLLFSPDVDEKLPKKGSEKISKSEETLLTPERLVGTNYRMSWTGPNNSSFQEVDANEASSMVENLEVENSLEPDIMVEKSPATSCELTPSNLNNKHNSNITSSPLSGDENNMTKETLVKVQKAFSESGSNLHALMNQRQSSVTNVGKVKLTEPSYLEDSPEENLFETNDLTIVESKEKYEHHTGKGEKCFSERDFSPLQTQTFNRETTIKCYSTQMKMEHEKDIHSNMPKDYLSKQEFSSDEEIKKQQSPKDKLNNKLKENENMMEGNLPKCAAHSKDEARSSFSQQSTCVVTNLSKPRPMRIAKQQSLETCEKTVSESSQMTEHRKVSDHIQWFNKLSLNEPNRIKVKSPLKFQRTPVRQSVRRINSLLEYSRQPTGHKLASLGDTASPLVKSVSCDGALSSCIESASKDSSVSCIKSGPKEQKSMSCEESNIGAISKSSMELPSKSFLKMRKHPDSVNASLRSTTVYKQKILSDGQVKVPLDDLTNHDIVKPVVNNNMGISSGINNRVLRRPSERGRAWYKGSPKHPIGKTQLLPTSKPVDL [ARHGAP11A] | -0.137 | -0.131 |  |  | -0.915 | -0.288 |
| NHS | 0.656 | 0.325 |  |  | -0.153 | -0.00515 |
| NPTN | -1.2 | -2.14 |  |  | 0.36 | 0.245 |
| PTEN | -0.257 | 0.0266 |  |  | -0.27 | 0.174 |
| SACS | -0.0387 | -0.338 |  |  | -0.294 | -0.045 |
| TMEM131 | -1.15 | -1.6 |  |  | -0.0423 | -0.0264 |
| UBR3 | -0.103 | -0.24 |  |  | -0.174 | -0.171 |
| VKORC1 | -0.761 | -1.55 |  |  | -0.134 | 0.136 |
